The values that follow come from publication PMC5662751, “Post-transcriptional gene silencing mediated by microRNAs is controlled by nucleoplasmic Sfpq”.

The target in this series is T1, Sfpq wild-type (human, UniProt P23246 1-707).
T1 sequence: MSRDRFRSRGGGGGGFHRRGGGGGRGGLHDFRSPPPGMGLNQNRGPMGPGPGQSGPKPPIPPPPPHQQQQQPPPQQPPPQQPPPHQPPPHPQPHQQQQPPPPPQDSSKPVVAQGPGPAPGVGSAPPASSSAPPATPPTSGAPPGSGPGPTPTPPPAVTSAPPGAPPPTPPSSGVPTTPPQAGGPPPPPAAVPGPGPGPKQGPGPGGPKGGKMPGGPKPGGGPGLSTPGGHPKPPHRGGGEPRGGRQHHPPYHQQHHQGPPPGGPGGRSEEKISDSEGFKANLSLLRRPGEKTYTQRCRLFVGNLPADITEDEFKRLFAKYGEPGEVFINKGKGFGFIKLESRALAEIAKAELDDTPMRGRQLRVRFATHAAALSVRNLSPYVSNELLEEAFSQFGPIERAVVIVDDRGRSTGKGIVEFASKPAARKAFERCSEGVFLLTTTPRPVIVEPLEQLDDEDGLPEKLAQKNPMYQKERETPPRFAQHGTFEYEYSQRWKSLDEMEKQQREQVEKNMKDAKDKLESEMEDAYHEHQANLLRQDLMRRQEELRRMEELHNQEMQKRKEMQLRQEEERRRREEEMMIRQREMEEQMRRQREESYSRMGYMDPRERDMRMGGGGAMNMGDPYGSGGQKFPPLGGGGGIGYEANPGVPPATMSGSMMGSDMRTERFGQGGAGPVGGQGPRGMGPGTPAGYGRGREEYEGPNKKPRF
Description: UV crosslinking; 100 nM Sfpq; EMSA: 75 mM Hepes pH 7.9, 150 mM NaCl, 75 mM KCl, 0.1 mM EDTA, 5 mM DTT, 5 mM PMSF, 15% glycerol, 15 min, room temperature; AFM: 120 mM NaCl, 24 mM Tris-HCl pH. Particulars: protein: recombinant, tags: 6xHis (pET15b), chain copies: 2, label: 32P. In general terms: A gel shift assay detects complexes by their altered migration in electrophoresis.

B1: CUGU/CUGUA x2 oligo (ssRNA)
RNA: CUGUACUGUA
B1: the binding result (two copies of CUGUA (contains CUGU)) is given as “binds”.

B2: Sfpq negative RNA oligo (CCCCG x2) (ssRNA)
RNA: CCCCGCCCCG
B2: the binding result is “no binding”.
